Test results taken from article PMC8604404, “Kinesin-binding protein remodels the kinesin motor to prevent microtubule binding” (Science Advances, 2021).
Values belong to the binder of their own block, whether it stands above or below them.

B1: His6-KIF15-N375 (KIF15 motor domain, amino acids 1 to 375) (domain or fragment, human, UniProt Q9NS87 1-375, looked up)
chain: MAPGCKTELRSVTNGQSNQPSNEGDAIKVFVRIRPPAERSGSADGEQNLCLSVLSSTSLRLHSNPEPKTFTFDHVADVDTTQESVFATVAKSIVESCMSGYNGTIFAYGQTGSGKTFTMMGPSESDNFSHNLRGVIPRSFEYLFSLIDREKEKAGAGKSFLCKCSFIEIYNEQIYDLLDSASAGLYLREHIKKGVFVVGAVEQVVTSAAEAYQVLSGGWRNRRVASTSMNRESSRSHAVFTITIESMEKSNEIVNIRTSLLNLVDLAGSERQKDTHAEGMRLKEAGNINRSLSCLGQVITALVDVGNGKQRHVCYRDSKLTFLLRDSLGGNAKTAIIANVHPGSRCFGETLSTLNFAQRAKLIKNKAVVNEDTQG
notes: No cleavage of the tag is described; also called KIF15 (1 to 375); source: E. coli BL21-DE3, purified (Ni-NTA, Superdex 200)

Tests used:
Settings in all cases: both partners purified
[1] = biological target: T1, Kinesin-binding protein (KIFBP), wild type (UniProt Q96EK5 1-621); test: SEC; kinesin motor domain mixed with equimolar KIFBP, Superose 6, 10 mM K-Hepes pH 7.7, 50 mM KCl, 1 mM DTT, 0.2 mM MgATP; fractions analysed by SDS-PAGE
T1 construct: also called KIFBP-WT; WT-KIFBP; source: E. coli BL21-DE3, purified (glutathione-Sepharose, PreScission cleavage, Superdex 200)
T1 sequence (looked up): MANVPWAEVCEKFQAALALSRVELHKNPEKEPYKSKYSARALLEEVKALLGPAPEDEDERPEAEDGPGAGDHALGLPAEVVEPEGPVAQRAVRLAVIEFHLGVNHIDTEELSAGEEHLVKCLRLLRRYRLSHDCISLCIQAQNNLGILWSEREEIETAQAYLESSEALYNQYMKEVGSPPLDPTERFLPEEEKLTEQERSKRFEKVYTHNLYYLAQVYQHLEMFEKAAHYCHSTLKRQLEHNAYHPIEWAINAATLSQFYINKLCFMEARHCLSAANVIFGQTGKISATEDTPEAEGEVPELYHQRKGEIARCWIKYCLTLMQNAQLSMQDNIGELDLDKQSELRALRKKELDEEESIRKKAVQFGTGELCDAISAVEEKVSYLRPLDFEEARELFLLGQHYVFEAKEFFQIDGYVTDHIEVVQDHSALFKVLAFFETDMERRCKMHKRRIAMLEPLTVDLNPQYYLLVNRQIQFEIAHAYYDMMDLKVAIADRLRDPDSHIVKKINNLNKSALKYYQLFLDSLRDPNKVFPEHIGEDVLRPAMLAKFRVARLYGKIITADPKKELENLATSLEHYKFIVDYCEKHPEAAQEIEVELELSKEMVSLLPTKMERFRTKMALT

[2] = biological target: T1, Kinesin-binding protein (KIFBP), wild …; test: pull-down; His6-kinesin motor domain immobilised on Ni-NTA agarose, 20 ug KIFBP protein or GST in 200 ul, 10 mM Hepes pH 7.4, 50 mM KCl, 10 mM imidazole, 30 min at 4°C; Coomassie gel, ratio of KIFBP to kinesin in the pellet
[3] = biological target: B1; test: as above

Binder: B1
binding result [1]: binds

binding result [2]: binds
B2: His6-KIF18A-N363 (KIF18A motor domain, amino acids 1 to 363) (domain or fragment, human, UniProt Q8NI77 1-363, looked up)
chain: MSVTEEDLCHHMKVVVRVRPENTKEKAAGFHKVVHVVDKHILVFDPKQEEVSFFHGKKTTNQNVIKKQNKDLKFVFDAVFDETSTQSEVFEHTTKPILRSFLNGYNCTVLAYGATGAGKTHTMLGSADEPGVMYLTMLHLYKCMDEIKEEKICSTAVSYLEVYNEQIRDLLVNSGPLAVREDTQKGVVVHGLTLHQPKSSEEILHLLDNGNKNRTQHPTDMNATSSRSHAVFQIYLRQQDKTASINQNVRIAKMSLIDLAGSERASTSGAKGTRFVEGTNINRSLLALGNVINALADSKRKNQHIPYRNSKLTRLLKDSLGGNCQTIMIAAVSPSSVFYDDTYNTLKYANRAKDIKSSLKSNV
notes: No cleavage of the tag is described; also called KIF18A (1-363); source: E. coli BL21-DE3, purified (Ni-NTA, Superdex 200)

fold reduction in binding against KIFBP-WT [3]: 2 fold
B3: KIFBP-L14^m (Loop-14 mutant of KIFBP) (natural protein, UniProt Q96EK5 1-621, looked up)
chain: MANVPWAEVCEKFQAALALSRVELHKNPEKEPYKSKYSARALLEEVKALLGPAPEDEDERPEAEDGPGAGDHALGLPAEVVEPEGPVAQRAVRLAVIEFHLGVNHIDTEELSAGEEHLVKCLRLLRRYRLSHDCISLCIQAQNNLGILWSEREEIETAQAYLESSEALYNQYMKEVGSPPLDPTERFLPEEEKLTEQERSKRFEKVYTHNLYYLAQVYQHLEMFEKAAHYCHSTLKRQLEHNAYHPIEWAINAATLSQFYINKLCFMEARHCLSAANVIFGQTGKISATEDTPEAEGEVPELYHQRKGEIARCWIKYCLTLMQNAQLSMQDNIGELDLDKQSELRALRKKELDEEESIRKKAVQFGTGELCDAISAVEEKVSYLRPLDFEEARELFLLGQHYVFEAKEFFQIDGYVTDHIEVVQDHSALFKVLAFFETDMERRCKMHKRRIAMLEPLTVAAAAAAYLLVNRQIQFEIAHAYYDMMDLKVAIADRLRDPDSHIVKKINNLNKSALKYYQLFLDSLRDPNKVFPEHIGEDVLRPAMLAKFRVARLYGKIITADPKKELENLATSLEHYKFIVDYCEKHPEAAQEIEVELELSKEMVSLLPTKMERFRTKMALT
notes: The methods tell the construction of mCherry-KIFBP-L14^m only, not of GST-KIFBP-L14^m; also called GST-KIFBP-L14^m; source: E. coli BL21-DE3, purified (glutathione-Sepharose, PreScission cleavage, Superdex 200)
